Data reported in patent EP2135619A1.

Target: human CC-chemokine receptor 2 (CCR2), endogenous on THP-1 cells, PBMC and whole blood cells (human) (UniProt P41597)
Assay: cell-based or functional assay

Sequence of UniProt P41597 (P41597 whole entry): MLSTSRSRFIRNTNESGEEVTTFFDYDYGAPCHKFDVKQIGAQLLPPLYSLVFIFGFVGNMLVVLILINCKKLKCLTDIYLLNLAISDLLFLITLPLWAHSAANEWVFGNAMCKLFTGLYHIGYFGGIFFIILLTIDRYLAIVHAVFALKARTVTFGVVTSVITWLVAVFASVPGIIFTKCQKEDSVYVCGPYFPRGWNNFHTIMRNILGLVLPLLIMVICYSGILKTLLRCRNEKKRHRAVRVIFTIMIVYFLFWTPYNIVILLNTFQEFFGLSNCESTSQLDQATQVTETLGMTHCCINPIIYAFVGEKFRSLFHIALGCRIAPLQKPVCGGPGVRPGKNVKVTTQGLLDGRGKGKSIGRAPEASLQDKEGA

Substance: murine monoclonal antibody LS132.1D9
- MCP-1-induced chemotaxis of fresh PBMC: 10 µg/mL
